# According to patent publication US20240209104A1 (SHANGHAI ACEMAB, published 2024):
# T1: hOX40-EC-His (human, UniProt P43489 29-214)
# T1 construct: extracellular domain; bought protein; also called recombinant human OX40 antigen protein; human OX40 extracellular segment antigen; not shown: 6 His label
# T1 sequence (looked up): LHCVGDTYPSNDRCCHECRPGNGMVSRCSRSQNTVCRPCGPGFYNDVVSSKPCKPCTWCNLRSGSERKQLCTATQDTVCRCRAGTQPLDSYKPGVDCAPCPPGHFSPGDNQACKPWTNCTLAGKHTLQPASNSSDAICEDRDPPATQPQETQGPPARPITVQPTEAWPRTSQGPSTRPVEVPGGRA
# T2: OX40 on OX40 over-expressed cells (UniProt P43489 29-277)
# T2 construct: whole, on cells; human implied; also called OX40 expressed on the surface of OX40 expressing cell
# T2 sequence (looked up): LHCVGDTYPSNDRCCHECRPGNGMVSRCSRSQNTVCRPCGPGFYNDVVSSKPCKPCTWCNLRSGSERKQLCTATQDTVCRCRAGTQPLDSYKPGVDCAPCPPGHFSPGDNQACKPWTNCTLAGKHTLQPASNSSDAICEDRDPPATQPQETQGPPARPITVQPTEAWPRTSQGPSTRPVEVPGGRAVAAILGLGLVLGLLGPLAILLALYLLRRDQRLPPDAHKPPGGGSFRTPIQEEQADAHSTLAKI
# B1: 30B1-3 (antibody, V domains shown)
# VH: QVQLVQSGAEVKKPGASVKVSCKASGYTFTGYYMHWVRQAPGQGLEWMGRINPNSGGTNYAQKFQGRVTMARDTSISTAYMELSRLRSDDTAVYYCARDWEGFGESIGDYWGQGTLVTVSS
# VL: EIVLTQSPGTLSLSPGERATFSCRASQSVSGSYLAWYQQKPGQAPRLLIHGASSRATGIPDRFSGSGSGTDFTLTISRLEPEDFAVYYCLQYGSSPLTFGGGTKVEIKR
# notes: hybridoma antibody, tested as culture supernatant
# B2: 23D1-8 (antibody, V domains shown)
# VH: QVQLVQSGAEVKKPGASVKVSCKASGYTFTGYYIHWVRQAPGQGLEWMGRINPNSGGTDFAQKFQARVTMTRDTAINIVYMELSRLRSDDTAVYYCARVVVASYYFDNWGQGTLVTVSS
# VL: not shown
# notes: as for B1
# B3: 35B8-6 (antibody, V domains shown)
# VH: QITLKESGPTLVKPTQTLTLTCTFSGFSLSTSAVNVGWIRQPHGKALEWLALIFWNDDKRYSPSLKNRLTITKDTSKDQVVLTMSNMDPVDTATYYCAQYNWNSSFDYWGQGTLVTVSS
# VL: DIQMTQSPSSLSASLGDRVTITCQASQDINTYLNWYQQKPGKAPKVLIYDASNLETGVPSRFSGSGSGTDFTFTISSLQPEDIATFYCQQYDNLITFGGGTKVEIKR
# notes: as for B1
# B4: 14D3-7-3 (antibody, V domains shown)
# VH: EVQLVESGGGLVKPGGSLRLSCAASGFTFSNAWMSWVRQAPGKGLEWVGRIKRKTDGGTTDYATPVKGRFTISRDASKNTLYLQMNSLKTEDTAVYYCTSAARRGYFDIWGRGTLVTVSS
# VL: EIVLTQSPGTLSLSPGERATLSCRASQSVSSRYLAWYQQKPGQAPRLLIYGASNRATGMPDRFSGSGSGTDFTLTISRLEPEDFAMYYCQQYGSSPITFGQGTRLEIKR
# notes: as for B1
# B5: 23C4-1-5 (antibody, V domains shown)
# VH: QVQLQESGPGLVKPSGTLSLTCAVSGGSISSSNWWSWVRQPPGKGLEWIGEIYHSGSTTYNPSLKSRVTISVDKSKSQISLKLTSVTAADTAVYYCARGDVLLWFGGRGTLVTVSS
# VL: EIVLTQSPGTLSLSPGERASLSCRASQSVSSNYLAWYQQKPGQTPRLLIYGASIRATGIPDRFSGSGSGTDFTLIISRLEPEDFAVYYCQQYSSSPITFGQGTRLEIKR
# notes: as for B1
# B6: 20G6-7-1 (antibody, V domains shown)
# VH: QVQLQESGPGLVKPSGTLSLTCAVSGGSISSSNWWSWVRQPPGKGLEWIGEIYHSGNTNYNPSLKSRVTISVDKSKNQFSLKLSSVTAADTAVYYCARGGTTFDYWGQGTLVTVSS
# VL: EIVLMQYPGTLSLSSGERATLSCRASQSVSSRYLAWYQQKPGQAPRLLIYGASNRASGMPDRFSGSGSGTEFTLTISSLEPEDFAMYYCQQYGSSPITFGQGTRVEIKR
# notes: as for B1
# B7: 16E4-10-5 (antibody, V domains shown)
# VH: QVQLQESGPGLVKPSGTLSLTCDVSGGSISSSNWWSWVRQPPGKGLEWIGEIYHSGSTNYNPSLKSRVTISVDKSKNQVSLKLNSVTAADTAVYYCARGDILLWFGGQGTLVTVSS
# VL: EIVLTQSPGTLSLSPGERATLSCRASQSVSSRYLAWYQQKPGQAPRLLIYGASNRATGMPDRFSGSGSGTDFTLTISRLEPEDFAVYYCQQYGSSPITFGQGTRLEIKR
# notes: as for B1
# B8: 24B9-10 (antibody, V domains shown)
# VH: QVQLQESGPGLVKPSGTLSLTCAVSGGSISSSNWWTWVRQPPGKGLEWIGEIYHSGSTNYNPSLKSRVTISVDKSKNQFSLKLSSVTAADTAVYYCARTGPIVTTEYWGQGTLVTVSS
# VL: EIVLTQSPGTLSLSPGERATLSCRASQSVSSGYLAWYQQKPGQAPRLLIYGASIRATGIPDRFSGSGSGTDFTLTISRLEPEDFALYYCQQYGSSPLTFGGGTKVEIKR
# notes: as for B1
# B9: 1F10-12-3 (antibody, V domains shown)
# VH: QVQLQESGPGLVKPSGTLSLTCAVSGGSISNSNWWNWVRQPPGRGLEWIGEIYHSGSTNYNPSLKSRVTISVDKSKNQFSLKLTSVTAADTAVYYCARYSTPFFDYWGQGNLVTVSS
# VL: DIQMTQSPSSLSASVGDRVTITCRASQSISNYLNWYQQKQGKAPKLLIYGASSLQSGVPSRFSGSGSGTDFTLTINSLQPEDFATYCCQQSYNNPLTFGGGTKVEIKR
# notes: as for B1
# B10: 55H6-6 (antibody, V domains shown)
# VH: QVQLVQSGAEVKKPGASVKVSCKASGYTFTSYGISWVRQAPGQGLEWMGWISAYNGHTNYAQKLQGRVTMTTDTSTNTAYMELWSLRSDDTAVYYCTSDYGDYWGQGTLVTVSS
# VL: DVVVTQSPLSLPVTLGQPASISCRSSQSLVYSDGNTNLYWFQQRPGQSPRRLIYQVSNRDSGVPDRFSGSGSGTDFTLKISRVEAEDVGVYYCMQGTHWPPALTFGGGTEVEIKR
# notes: as for B1
# B11: 38D9-12 (antibody, V domains shown)
# VH: QVQLQESGPGLVKPSGTLSLTCAVSGDSISSTNWWSWVRQPPGKGLEWIGEINHNGSTYYNPSLKSRVTISVDKSKNQFSLKLRSVTAADTAVYYCAREDYYYMDVWGKGTTVTVSS
# VL: DIQMTQSPSSLSASVGDRVTITCRTSQGIWNDLGWYQQKPGKAPKRLIYAASSLQSGVPSRFSGSESGTEFTLTISSLQPEDFATYYCLQYNNYPLTFGGGTKVEIKR
# notes: as for B1
# How the values were obtained:
# hOX40-EC-His [1] = target: T1, hOX40-EC-His; assay: ELISA, supernatant 1:100, coated hOX40-EC-His
# hOX40-EC-His [2] = target: T1, hOX40-EC-His; assay: ELISA, supernatant diluted 100 times, coated OX40 (CK60)
# hOX40-EC-His [3] = target: T1, hOX40-EC-His; assay: ELISA, supernatant stoste, coated OX40 (CK60)
# [4] = target: T2, OX40 on OX40 over-expressed cells; assay: flow cytometry, supernatant on OX40 over-expressed cells
# Description: After collecting OX40 over-expressed cells by 200G centrifugation, wash them with PBS containing 3% FCS, and then resuspend them in 2.5 ml of PBS containing 3% FCS. […] Finally, the cells were resuspended in […] of PBS containing 3% FCS for detection by flow cytometry.
# hOX40-EC-His [5] = target: T1, hOX40-EC-His; assay: ELISA, supernatant diluted 50 times, coated OX40 (CK60)
Binder,IgG ELISA (1:100) (hOX40-EC-His [1]) [OD650],450 nm light absorption (hOX40-EC-His [2]) [OD450],450 nm light absorption (hOX40-EC-His [3]) [OD450],Y586 channel PE fluorescence value [4],450 nm light absorption (hOX40-EC-His [5]) [OD450]
B1,2,1.89,2.31,208000,
B2,2.4,2.02,2.48,166000,
B3,2.1,0.215,1.47,243000,
B4,2.2,,,274000,2.01
B5,2.4,,,63900,2.63
B6,,,,352000,2.21
B7,,,,377000,2.53
B8,0.2,0.574,2.19,313000,
B9,2.3,,,170000,2.17
B10,0.1,1.9,2.43,479000,
B11,2.4,2.1,2.24,243000,
